Results: patent US20190002539A1 (NATIONAL CENTER FOR AIDS STD CONTROL AND PREVENTION CHINESE …, published 2019)

What was measured:
[1] = biological target: HIV-1 Env of pseudovirus 398-F1 (HIV-1); test: cell-based or functional assay
[2] = biological target: HIV-1 Env of pseudovirus TRO.11 (HIV-1); test: cell-based or functional assay
[3] = biological target: HIV-1 Env of pseudovirus X2278 (HIV-1); test: cell-based or functional assay
[4] = biological target: HIV-1 Env of pseudovirus 25710 (HIV-1); test: cell-based or functional assay
[5] = biological target: HIV-1 Env of pseudovirus Ce0217 (HIV-1); test: cell-based or functional assay
[6] = biological target: HIV-1 Env of pseudovirus Ce1176 (HIV-1); test: cell-based or functional assay
[7] = biological target: HIV-1 Env of pseudovirus X1632 (HIV-1); test: cell-based or functional assay
[8] = biological target: HIV-1 Env of pseudovirus CNE55 (HIV-1); test: cell-based or functional assay
[9] = biological target: HIV-1 Env of pseudovirus CNE8 (HIV-1); test: cell-based or functional assay
[10] = biological target: HIV-1 Env of pseudovirus BJOX2000 (HIV-1); test: cell-based or functional assay
[11] = biological target: HIV-1 Env of pseudovirus CH119.10 (HIV-1); test: cell-based or functional assay
[12] = biological target: HIV-1 Env of pseudovirus 246 (HIV-1); test: cell-based or functional assay
[13] = biological target: HIV-1 Env of pseudovirus SF162 (HIV-1, UniProt P19550 32-847); test: cell-based or functional assay
[14] = biological target: HIV-1 Env of pseudovirus QH0692 (HIV-1); test: cell-based or functional assay
[15] = biological target: HIV-1 Env of pseudovirus SC422661 (HIV-1); test: cell-based or functional assay
[16] = biological target: HIV-1 Env of pseudovirus PV0.4 (HIV-1); test: cell-based or functional assay
[17] = biological target: HIV-1 Env of pseudovirus AC10 (HIV-1); test: cell-based or functional assay
[18] = biological target: HIV-1 Env of pseudovirus RHPA4259 (HIV-1); test: cell-based or functional assay
[19] = biological target: HIV-1 Env of pseudovirus REJO4541 (HIV-1); test: cell-based or functional assay
[20] = biological target: HIV-1 Env of pseudovirus TRJO4551 (HIV-1); test: cell-based or functional assay
[21] = biological target: HIV-1 Env of pseudovirus CAAN5342 (HIV-1); test: cell-based or functional assay
[22] = biological target: HIV-1 Env of pseudovirus CH110 (HIV-1); test: cell-based or functional assay
[23] = biological target: HIV-1 Env of pseudovirus CH117 (HIV-1); test: cell-based or functional assay
[24] = biological target: HIV-1 Env of pseudovirus CH181 (HIV-1); test: cell-based or functional assay
[25] = biological target: HIV-1 Env of pseudovirus CH120 (HIV-1); test: cell-based or functional assay
[26] = biological target: HIV-1 Env of pseudovirus MW965 (HIV-1); test: cell-based or functional assay
[27] = biological target: HIV-1 Env of pseudovirus ZM109F (HIV-1); test: cell-based or functional assay
[28] = biological target: HIV-1 Env of pseudovirus Du422 (HIV-1); test: cell-based or functional assay
[29] = biological target: HIV-1 Env of pseudovirus ZM249M (HIV-1); test: cell-based or functional assay
[30] = biological target: HIV-1 Env of pseudovirus CAP45 (HIV-1); test: cell-based or functional assay
[31] = biological target: HIV-1 Env of pseudovirus Q461 (HIV-1); test: cell-based or functional assay
[32] = biological target: HIV-1 Env of pseudovirus Q769 (HIV-1); test: cell-based or functional assay
[33] = biological target: HIV-1 Env of pseudovirus Q259 (HIV-1); test: cell-based or functional assay
[34] = biological target: HIV-1 Env of pseudovirus Q842 (HIV-1); test: cell-based or functional assay
[35] = biological target: HIV-1 Env of pseudovirus BJMSM2249 (HIV-1); test: cell-based or functional assay
[36] = biological target: HIV-1 Env of pseudovirus BJMSM2316 (HIV-1); test: cell-based or functional assay
[37] = biological target: HIV-1 Env of pseudovirus BJMSM2498 (HIV-1); test: cell-based or functional assay
[38] = biological target: T1, wild-type (WT) YU2 gp120 (HIV-1, UniProt P35961 32-498); test: ELISA, antigen coated at 2 µg/ml
T1 construct: domain: gp120

B1: monoclonal antibody DRVIA7H+VRC01L (antibody, V domains shown)
VH: QVQLVESGTQFRRPGASVRLSCEASGYTFISSFIHWIRQGPGQGLEWMGWMNPRHGAVNYPRRFQGKVTMTRDTSIDTAYMELRDLRSDDTAMYFCVTSRTKDYDWDFVWGQGTLVVVSS
VL: EIVLTQSPGTLSLSPGETAIISCRTSQYGSLAWYQQRPGQAPRLVIYSGSTRAAGIPDRFSGSRWGPDYNLTISNLESGDFGVYYCQQYEFFGQGTKVQVDI
IC50 in µg/ml, TZM-bl/pseudovirus neutralizing assay [1]: 0.8 µg/mL
IC50 in µg/ml, TZM-bl/pseudovirus neutralizing assay [2]: 1.18 µg/mL
IC50 in µg/ml, TZM-bl/pseudovirus neutralizing assay [3]: 0.34 µg/mL
IC50 in µg/ml, TZM-bl/pseudovirus neutralizing assay [4]: 2.5 µg/mL
IC50 in µg/ml, TZM-bl/pseudovirus neutralizing assay [5]: 0.65 µg/mL
IC50 in µg/ml, TZM-bl/pseudovirus neutralizing assay [6]: 4.08 µg/mL
IC50 in µg/ml, TZM-bl/pseudovirus neutralizing assay [7]: 0.61 µg/mL
IC50 in µg/ml, TZM-bl/pseudovirus neutralizing assay [8]: 1.23 µg/mL
IC50 in µg/ml, TZM-bl/pseudovirus neutralizing assay [9]: 1.48 µg/mL
IC50 in µg/ml, TZM-bl/pseudovirus neutralizing assay [10]: 15.9 µg/mL
IC50 in µg/ml, TZM-bl/pseudovirus neutralizing assay [11]: 1.85 µg/mL
IC50 in µg/ml, TZM-bl/pseudovirus neutralizing assay [12]: 1.29 µg/mL
IC50 in µg/ml, TZM-bl/pseudovirus neutralizing assay [13]: 0.3 µg/mL
IC50 in µg/ml, TZM-bl/pseudovirus neutralizing assay [14]: 2.03 µg/mL
IC50 in µg/ml, TZM-bl/pseudovirus neutralizing assay [15]: 0.58 µg/mL
IC50 in µg/ml, TZM-bl/pseudovirus neutralizing assay [16]: 1.18 µg/mL
IC50 in µg/ml, TZM-bl/pseudovirus neutralizing assay [17]: 15.5 µg/mL
IC50 in µg/ml, TZM-bl/pseudovirus neutralizing assay [18]: 0.34 µg/mL
IC50 in µg/ml, TZM-bl/pseudovirus neutralizing assay [19]: 0.75 µg/mL
IC50 in µg/ml, TZM-bl/pseudovirus neutralizing assay [20]: 1.44 µg/mL
IC50 in µg/ml, TZM-bl/pseudovirus neutralizing assay [21]: 3.4 µg/mL
IC50 in µg/ml, TZM-bl/pseudovirus neutralizing assay [22]: 0.15 µg/mL
IC50 in µg/ml, TZM-bl/pseudovirus neutralizing assay [23]: 0.59 µg/mL
IC50 in µg/ml, TZM-bl/pseudovirus neutralizing assay [24]: 0.98 µg/mL
IC50 in µg/ml, TZM-bl/pseudovirus neutralizing assay [25]: 6.53 µg/mL
IC50 in µg/ml, TZM-bl/pseudovirus neutralizing assay [26]: 0.2 µg/mL
IC50 in µg/ml, TZM-bl/pseudovirus neutralizing assay [27]: 0.59 µg/mL
IC50 in µg/ml, TZM-bl/pseudovirus neutralizing assay [28]: > 20 µg/mL
IC50 in µg/ml, TZM-bl/pseudovirus neutralizing assay [29]: 0.74 µg/mL
IC50 in µg/ml, TZM-bl/pseudovirus neutralizing assay [30]: 0.84 µg/mL
IC50 in µg/ml, TZM-bl/pseudovirus neutralizing assay [31]: 1.4 µg/mL
IC50 in µg/ml, TZM-bl/pseudovirus neutralizing assay [32]: 0.3 µg/mL
IC50 in µg/ml, TZM-bl/pseudovirus neutralizing assay [33]: > 20 µg/mL
IC50 in µg/ml, TZM-bl/pseudovirus neutralizing assay [34]: 0.18 µg/mL
IC50 in µg/ml, TZM-bl/pseudovirus neutralizing assay [35]: 2.25 µg/mL
IC50 in µg/ml, TZM-bl/pseudovirus neutralizing assay [36]: 0.47 µg/mL
IC50 in µg/ml, TZM-bl/pseudovirus neutralizing assay [37]: 4.32 µg/mL
binding result [38]: binds
